Measured values: patent US20210130452A1 (Merck KGaA, published 2021)

Columns and labels:
rat IL-17F = target: T1, rat IL-17F (rat, UniProt Q5BJ95 29-161); assay: binding ELISA
T1 sequence (looked up): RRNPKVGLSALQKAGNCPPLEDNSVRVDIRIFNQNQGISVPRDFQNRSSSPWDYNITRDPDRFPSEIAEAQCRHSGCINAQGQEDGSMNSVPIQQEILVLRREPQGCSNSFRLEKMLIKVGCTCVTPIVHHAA
Experimental: (§1) Binding of a selected panel of anti-IL-17 Nanobodies to IL-17 of other species was assessed using a binding ELISA. […] HRP (horseradish peroxidase) conjugated anti-myc (Serotec, MCA 2200P) was used for detection using esTMB as substrate.

mouse IL-17F = target: T2, mouse IL-17F (mouse, UniProt Q7TNI7 29-161); assay: binding ELISA
T2 sequence (looked up): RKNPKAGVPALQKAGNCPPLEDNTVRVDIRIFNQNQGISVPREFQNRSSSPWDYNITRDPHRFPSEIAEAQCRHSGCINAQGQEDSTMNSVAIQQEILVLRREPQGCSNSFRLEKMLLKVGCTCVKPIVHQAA
Experimental: as §1

human IL-17B = target: T3, human IL-17B (human, UniProt Q9UHF5 21-180); assay: SPR, cytokine on chip
T3 construct: expressed in E. coli; also called hIL-17B
T3 sequence (looked up): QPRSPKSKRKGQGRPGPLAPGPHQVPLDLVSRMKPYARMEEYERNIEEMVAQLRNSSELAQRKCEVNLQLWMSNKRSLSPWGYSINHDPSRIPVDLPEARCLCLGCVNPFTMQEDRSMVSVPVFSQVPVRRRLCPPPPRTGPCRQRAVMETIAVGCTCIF
Text: (§2) Human IL-17B, IL-17C, IL-17D or IL-17E were all expressed in E. coli, and covalently bound to a CM sensor chip surface via amine coupling using EDC/NHS for activation and HCl for deactivation.
(§3) Next, binding buffer was sent over the chip at the same flow rate to allow spontaneous dissociation of bound Nanobody or antibody.

human IL-17C = target: T4, human IL-17C (human, UniProt Q9P0M4 19-197); assay: SPR, cytokine on chip
T4 construct: expressed in E. coli; also called hIL-17C
T4 sequence (looked up): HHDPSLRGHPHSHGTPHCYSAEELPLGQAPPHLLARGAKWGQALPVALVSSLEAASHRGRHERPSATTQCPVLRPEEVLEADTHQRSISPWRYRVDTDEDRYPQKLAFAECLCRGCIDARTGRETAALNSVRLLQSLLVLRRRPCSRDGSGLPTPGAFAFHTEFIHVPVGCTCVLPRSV
Text: as §2, §3

human IL-17E = target: T5, human IL-17E (human, UniProt Q9H293 33-177); assay: SPR, cytokine on chip
T5 construct: expressed in E. coli; also called hIL-17E
T5 sequence (looked up): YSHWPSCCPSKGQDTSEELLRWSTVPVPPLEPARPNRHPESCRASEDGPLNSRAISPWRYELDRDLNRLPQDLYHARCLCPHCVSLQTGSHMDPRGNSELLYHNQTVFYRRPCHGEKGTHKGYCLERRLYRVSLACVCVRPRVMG
Text: as §2, §3

human IL-17D = target: T6, human IL-17D (human, UniProt Q8TAD2 18-202, limits assumed); assay: SPR, cytokine on chip
T6 construct: expressed in E. coli; also called hIL-17D
T6 sequence (looked up): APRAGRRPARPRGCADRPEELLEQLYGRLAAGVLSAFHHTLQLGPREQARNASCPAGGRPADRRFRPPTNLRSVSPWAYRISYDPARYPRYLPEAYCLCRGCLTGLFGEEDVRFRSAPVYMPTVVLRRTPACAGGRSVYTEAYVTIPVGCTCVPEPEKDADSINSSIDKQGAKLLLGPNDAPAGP
Text: as §2, §3

human IL-17F = target: T7, human IL-17F (human, UniProt Q96PD4 31-163, biotinylated with Sulfo-NHS-LC-Biotin in the AlphaScreen assays only); assay: SPR Biacore, hIL-17F on chip; periplasmic extract (*); NB = no binding
T7 construct: also called hIL-17F; recombinant human IL-17F
T7 sequence: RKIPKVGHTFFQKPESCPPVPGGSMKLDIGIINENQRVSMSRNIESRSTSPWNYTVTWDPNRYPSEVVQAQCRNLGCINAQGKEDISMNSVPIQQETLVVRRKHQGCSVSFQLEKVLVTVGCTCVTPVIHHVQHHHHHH
Experimental: Off-rates of the periplasmic extracts containing anti-IL-17 Nanobodies were measured by Surface Plasmon Resonance (SPR) using a Biacore T100 instrument. […] Periplasmic extracts containing IL-17 neutralizing Nanobodies were injected for 2 minutes at a flow rate of 45 μl/min to allow binding to chip-bound antigen. Next, binding buffer without periplasmic extracts was sent over the chip at the same flow rate to allow spontaneous dissociation of bound Nanobody. From the sensorgrams obtained for the different periplasmic extracts koff-values (k₄) were calculated.

[1] = target: T8, human IL-17A/F heterodimer (human, UniProt Q16552 24-155; Q96PD4 31-163, limits assumed, biotinylated with Sulfo-NHS-LC-Biotin in the AlphaScreen assays only); assay: SPR Biacore, hIL-17A/F on chip; purified protein
T8 construct: also called hIL-17A/F

human IL-17A [2] = target: T9, human IL-17A (human, UniProt Q16552 24-155, biotinylated with Sulfo-NHS-LC-Biotin in the AlphaScreen assays only); assay: SPR Biacore, hIL-17A on chip; purified protein
T9 construct: also called hIL-17A; recombinant human IL-17A

[3] = target: T8, human IL-17A/F heterodimer; assay: AlphaScreen competition, hIL-17A/F - IL-17RC-Fc
Experimental: (§4) To this mixture, the IL-17RA or IL-17RC Fc-fusions, Acceptor beads and the streptavidin Donor beads were added and further incubated for 1 hour at RT.

human IL-17A [4] = target: T9, human IL-17A; assay: cell-based or functional assay
[5] = target: T8, human IL-17A/F heterodimer; assay: cell-based or functional assay
human IL-17A [6] = target: T9, human IL-17A; assay: AlphaScreen competition, hIL-17A - IL-17RA-Fc;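 also: receptor Fc-fusion plus Acceptor and streptavidin Donor beads incubated with the mixture for 1 h at room temperature before reading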
Experimental: as §4

[7] = target: T8, human IL-17A/F heterodimer; assay: AlphaScreen competition, hIL-17A/F - IL-17RA-Fc
Experimental: as §4

human IL-17A [8] = target: T9, human IL-17A; assay: AlphaScreen competition, hIL-17A - IL-17RC-Fc;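 also: Read-out after 1 h at room temperature with the receptor Fc-fusion, Acceptor beads and streptavidin-coated Donor beads present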
Experimental: as §4

T9 sequence (Q16552 other isoform, or with tags, fused parts or gaps): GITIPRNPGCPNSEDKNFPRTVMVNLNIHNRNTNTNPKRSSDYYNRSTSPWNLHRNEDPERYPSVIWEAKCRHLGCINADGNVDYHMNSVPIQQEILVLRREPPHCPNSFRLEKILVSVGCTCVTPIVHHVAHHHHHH
T8 sequence (Q16552 24-155 limits assumed, chain 1 of 2, one chain of several): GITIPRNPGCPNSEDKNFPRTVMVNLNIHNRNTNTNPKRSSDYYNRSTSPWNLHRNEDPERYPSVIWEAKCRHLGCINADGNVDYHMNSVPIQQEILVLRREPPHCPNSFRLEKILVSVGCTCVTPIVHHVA

Row | Binder | binding result (rat IL-17F) | binding result (mouse IL-17F) | binding result (human IL-17B) | binding result (human IL-17C) | binding result (human IL-17E) | binding result (human IL-17D) | binding result (human IL-17F) | koff [1] [s⁻¹] | koff (human IL-17A [2]) [s⁻¹] | IC50 [3] [nM] | IL-17A-induced IL-6 production in HT-1080 cells, Emax (human IL-17A [4]) [%] | IL-17A-induced IL-6 production in HT-1080 cells, IC50 (human IL-17A [4]) [nM] | IL-17A/F-induced IL-6 production in HT-1080 cells, Emax [5] [%] | IL-17A/F-induced IL-6 production in HT-1080 cells, IC50 [5] [nM] | IC50 (human IL-17A [6]) [nM] | IC50 [7] [nM] | IC50 (human IL-17A [8]) [nM]
1 | 07B09 (VHH, Class 3) VHH: EVQLVESGGGLVQAGGSLRLSCGASGGTFSSYATGWFRQAPGKEREFVAVLRWSDGHTAYADSVKGRFTISRDGAKNTMYLQMSSLKPEDTAIYYCTTATRPGEWDYWGQGTQVTVSS | no binding (tested: 250 nM) | no binding (tested: 250 nM) | no binding | no binding | no binding | no binding | – | – | – | – | – | – | – | – | – | – | –
2 | 24G10 (VHH, Class 3) VHH: EVQLVESGGGLVQAGGSLRLSCGAAGGTFSSYATGWFRQAPGKEREFVAVFRWSDSHTAYADSVKGRFTISRDGAKNTLYLQMSSLKPEDTAIYYCTTATRPGEWDYWGQGTQVTVSS | no binding (tested: 250 nM) | no binding (tested: 250 nM) | no binding | no binding | no binding | no binding | – | – | – | – | – | – | – | – | – | – | –
3 | 08H01 (VHH, Class 3) VHH: EVQLVESGGGLVQAGGSLRLSCGASGGTFSSYATGWFRQAPGKEREFVAVLRWSDSHTAYADSVEGRFTISRDGAKNTVYLQMSSLKPEDTAIYYCTTGTRPGEWHYWGQGTQVTVSS | no binding (tested: 250 nM) | no binding (tested: 250 nM) | no binding | no binding | no binding | no binding | – | – | – | – | – | – | – | – | – | – | –
4 | 16A04 (VHH, Class 3; also called IL17MS16A04) VHH: EVQLVESGGGLVQAGGSLRLSCAASGRTFSSYVVGWFRQAPGKEREFIGAISGSGDSIYYAVSEKDRFTISRDNGKNTLYLQMSSLKAEDTAVYYCTADQEFGYLRFGRSEYWGQGTQVTVSS | no binding (tested: 250 nM) | no binding (tested: 250 nM) | no binding | no binding | no binding | no binding | – | – | – | – | – | – | – | – | – | – | –
5 | 07B11 (VHH, Class 3) VHH: EVQLVESGGGLVQAGGSLRLSCVASGRAFSSYVMGWFRQAPGMEREFVALIRWSDGITGYVDSVKGRFTISRDNAKNTVYLQMNSLKPEDTAVYYCAAAVRPGDYDYWGQGTQVTVSS | no binding (tested: 250 nM) | no binding (tested: 250 nM) | no binding | no binding | no binding | no binding | – | – | – | – | – | – | – | – | – | – | –
6 | 02A10 (VHH, Class 2 Nanobody (anti-IL-17A and IL-17A/F); not shown: c-myc, His6 tag) VHH: EVQLVESGGGLVQPGGSLRLSCAASGFALGYYAIGWFRQAPGKEREGVSCDSSSDGRTYYGDSVKGRFTISTDSAKNTVYLQMNSLKPEDTAVYYCATCTDFEYDYWGQGTQVTVSS | – | – | – | – | – | – | no binding | 0.00028 | 0.00022 | 0.248 | 104 | 4.3 | 98.5 | 29.2 | 0.115 | 0.199 | 0.381
7 | 04B10 (VHH, Class 2 Nanobody (anti-IL-17A and IL-17A/F); not shown: c-myc, His6 tag) VHH: EVQLVESGGGLVQAGGSQSLSCVASGTIVNINVMGWYRQAPGKQRELVALITSGGGTTYGDSVKGRFTISIDNAKNTVILQMNSLEAEDTAVYYCAAEIGYYSGGTYFSSEAHWGQGTQVTVSS | – | – | – | – | – | – | no binding | 0.0005 | 0.0004 | 0.052 | 99.7 | 5.1 | 97 | 59.2 | 0.068 | 0.095 | 0.366
8 | 04F09 (VHH, Class 2 Nanobody (anti-IL-17A and IL-17A/F); not shown: c-myc, His6 tag) VHH: EVQLVESGGGLVQPGGSLRLSCAASGRTFSTHAMGWFRQAPGKERDFVAAIRWSDGSSFYADSVKGRFTISRDNAKNAVYLQSNSLKSEDTAVYVCYADVEGPTALHKYWGRGTQVTVSS | – | – | – | – | – | – | no binding | 0.0081 | 0.00063 | 3.15 | 111 | 9.7 | 68.5 | 45.9 | 0.099 | 3.98 | 0.468
9 | 06E11 (VHH, Class 3) VHH: EVQLVESGGGLVQAGGSLRLSCPVSGRAFSRGRLGWFRQAPGKEREFVAVAHWSGAITSYADSVKGRFTFSRDNAKNTMNLQMNSLKPEDTAVYYCAADSETSGNWVYWGQGTQVTVSS | no binding (tested: 250 nM) | no binding (tested: 250 nM) | no binding | no binding | no binding | no binding | – | – | – | – | – | – | – | – | – | – | –
10 | 24B08 (VHH, Class 3) VHH: EVQLVESGGGLVQAGGSLRLSCAVSGGTFSTYKMGWFRQAPGKEREIVARISTNGPTAYAEFVKGRFTVSRENTKNTVYLQMNSLNIEDTAVYYCAAGYDSLFAGYDYWGQGTQVTVSS | no binding (tested: 250 nM) | no binding (tested: 250 nM) | – | – | – | – | – | – | – | – | – | – | – | – | – | – | –
